Measured values as given in US20220135701A1 (Genentech, published 2022).
Changes are numbered by the printed parent chain. Read-outs that look alike come from different tables or passages of the source. Values belong to the binder of their own block, whether it stands above or below them.

Tests used:
rat MerTK [1] = molecular target: T1, rat MerTK (rat, UniProt P57097 23-496, limits assumed); assay: SPR BIAcore T200, Ab captured, 37C
T1 construct: Soluble analyte in SPR
T1 sequence (looked up): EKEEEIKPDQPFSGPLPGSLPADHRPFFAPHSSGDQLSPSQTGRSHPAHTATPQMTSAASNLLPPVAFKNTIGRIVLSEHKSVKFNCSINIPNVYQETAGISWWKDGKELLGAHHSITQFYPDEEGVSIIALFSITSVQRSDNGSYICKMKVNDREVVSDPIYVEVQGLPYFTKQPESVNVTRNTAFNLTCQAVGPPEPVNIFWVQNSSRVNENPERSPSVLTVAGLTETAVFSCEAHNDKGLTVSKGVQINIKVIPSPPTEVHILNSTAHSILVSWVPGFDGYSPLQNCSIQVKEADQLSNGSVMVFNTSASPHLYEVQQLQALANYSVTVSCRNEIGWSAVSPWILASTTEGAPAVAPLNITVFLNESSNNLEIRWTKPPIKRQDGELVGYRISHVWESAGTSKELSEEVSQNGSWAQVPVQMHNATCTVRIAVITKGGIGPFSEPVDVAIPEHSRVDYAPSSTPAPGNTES
Procedure: (§1) All binding affinity determinations were obtained using Surface Plasmon Resonance (SPR) measurements from a BIAcore™-T200 instrument. Briefly, each rabbit or humanized antibody was captured to achieve approximately 100 RU (Response Units). Then, 3-fold serial dilutions of MerTK from various species (0.4 nM to 100 nM) diluted in HBS-EP buffer (0.01M HEPES pH 7.4, 0.15M NaCl, 3 mM EDTA and 0.05% v/v surfactant P20) was injected into the BIAcore™-T200 instrument at 25° C. or 37° C. with a flow rate of 30 μl/min. Association rates (kₒₙ) and dissociation rates (koff) were calculated using a simple one-to-one Langmuir binding model (BIAcore T200 evaluation software version 2.0). The equilibrium dissociation constant (KD) was calculated as the ratio koff/kₒₙ.

human MerTK [2] = molecular target: T2, human MerTK (human, UniProt Q12866 26-499); assay: SPR BIAcore T200, Ab captured, 37C
T2 construct: also called HuMER
T2 sequence: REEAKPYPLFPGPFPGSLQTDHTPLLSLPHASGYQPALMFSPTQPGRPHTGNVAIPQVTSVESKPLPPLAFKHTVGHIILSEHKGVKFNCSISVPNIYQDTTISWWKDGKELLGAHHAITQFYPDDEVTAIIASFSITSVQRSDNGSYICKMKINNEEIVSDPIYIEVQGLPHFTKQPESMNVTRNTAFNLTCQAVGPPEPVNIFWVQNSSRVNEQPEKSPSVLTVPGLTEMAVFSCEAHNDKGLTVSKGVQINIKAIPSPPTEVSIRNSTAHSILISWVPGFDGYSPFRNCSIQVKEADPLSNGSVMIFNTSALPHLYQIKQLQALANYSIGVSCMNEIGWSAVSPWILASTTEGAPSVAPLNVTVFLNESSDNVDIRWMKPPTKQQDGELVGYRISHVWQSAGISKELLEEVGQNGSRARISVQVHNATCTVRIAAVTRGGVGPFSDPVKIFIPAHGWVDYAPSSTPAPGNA
Procedure: as §1

mouse MerTK [3] = molecular target: T3, mouse MerTK (mouse, UniProt Q60805 23-496); assay: SPR BIAcore T200, Ab captured, 37C
T3 construct: also called MuMER
T3 sequence (looked up): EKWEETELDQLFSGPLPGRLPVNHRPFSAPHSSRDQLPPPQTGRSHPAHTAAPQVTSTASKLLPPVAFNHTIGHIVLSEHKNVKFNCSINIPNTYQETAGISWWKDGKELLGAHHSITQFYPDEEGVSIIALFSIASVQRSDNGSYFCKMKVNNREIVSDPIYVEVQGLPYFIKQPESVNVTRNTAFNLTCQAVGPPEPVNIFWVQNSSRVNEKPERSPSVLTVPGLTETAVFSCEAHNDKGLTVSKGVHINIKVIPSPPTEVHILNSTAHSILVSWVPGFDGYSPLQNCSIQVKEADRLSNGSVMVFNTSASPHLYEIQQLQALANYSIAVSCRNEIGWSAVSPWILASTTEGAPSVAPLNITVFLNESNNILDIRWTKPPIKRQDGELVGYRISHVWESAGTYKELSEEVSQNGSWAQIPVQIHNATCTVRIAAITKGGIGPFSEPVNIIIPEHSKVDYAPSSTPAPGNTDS
Procedure: as §1

cynomolgus monkey MerTK [4] = molecular target: T4, cynomolgus monkey MerTK (cynomolgus monkey, UniProt A0A2K5V1H9 32-505); assay: SPR BIAcore T200, Ab captured, 37C
T4 construct: Soluble analyte in SPR; also called Cyno MerTK
T4 sequence: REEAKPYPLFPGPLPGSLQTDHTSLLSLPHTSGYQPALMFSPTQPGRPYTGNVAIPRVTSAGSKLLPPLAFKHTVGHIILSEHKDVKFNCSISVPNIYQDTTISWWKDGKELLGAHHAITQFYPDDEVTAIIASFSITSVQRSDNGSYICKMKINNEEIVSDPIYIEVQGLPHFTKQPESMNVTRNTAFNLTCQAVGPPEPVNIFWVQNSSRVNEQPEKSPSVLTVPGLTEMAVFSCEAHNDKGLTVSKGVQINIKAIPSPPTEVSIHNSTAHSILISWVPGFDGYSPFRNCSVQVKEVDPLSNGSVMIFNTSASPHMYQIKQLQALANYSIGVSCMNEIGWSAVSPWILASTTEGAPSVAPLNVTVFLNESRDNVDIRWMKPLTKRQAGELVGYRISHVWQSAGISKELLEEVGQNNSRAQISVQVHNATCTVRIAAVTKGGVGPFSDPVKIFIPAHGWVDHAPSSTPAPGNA
Procedure: as §1

rat MerTK [5] = molecular target: T1, rat MerTK; assay: SPR BIAcore T200, Ab captured, 37C; remark: listed apart in the source
Procedure: (§2) Each rabbit and humanized antibody was subjected to a binding assay to determine its affinity to MerTK derived from various species.
as §1

human MerTK [6] = molecular target: T2, human MerTK; assay: SPR BIAcore T200, Ab captured, 37C; remark: listed apart in the source
Procedure: as §2, §1

mouse MerTK [7] = molecular target: T3, mouse MerTK; assay: SPR BIAcore T200, Ab captured, 37C; remark: listed apart in the source
Procedure: as §2, §1

cynomolgus monkey MerTK [8] = molecular target: T4, cynomolgus monkey MerTK; assay: SPR BIAcore T200, Ab captured, 37C; remark: listed apart in the source
Procedure: as §2, §1

human MerTK [9] = molecular target: T2, human MerTK; assay: SPR BIAcore T200, Ab captured, 37C; remark: listed apart in the source
[10] = molecular target: T5, human MerTK on human macrophages (human, UniProt Q12866 21-999); assay: cell-based or functional assay
T5 sequence: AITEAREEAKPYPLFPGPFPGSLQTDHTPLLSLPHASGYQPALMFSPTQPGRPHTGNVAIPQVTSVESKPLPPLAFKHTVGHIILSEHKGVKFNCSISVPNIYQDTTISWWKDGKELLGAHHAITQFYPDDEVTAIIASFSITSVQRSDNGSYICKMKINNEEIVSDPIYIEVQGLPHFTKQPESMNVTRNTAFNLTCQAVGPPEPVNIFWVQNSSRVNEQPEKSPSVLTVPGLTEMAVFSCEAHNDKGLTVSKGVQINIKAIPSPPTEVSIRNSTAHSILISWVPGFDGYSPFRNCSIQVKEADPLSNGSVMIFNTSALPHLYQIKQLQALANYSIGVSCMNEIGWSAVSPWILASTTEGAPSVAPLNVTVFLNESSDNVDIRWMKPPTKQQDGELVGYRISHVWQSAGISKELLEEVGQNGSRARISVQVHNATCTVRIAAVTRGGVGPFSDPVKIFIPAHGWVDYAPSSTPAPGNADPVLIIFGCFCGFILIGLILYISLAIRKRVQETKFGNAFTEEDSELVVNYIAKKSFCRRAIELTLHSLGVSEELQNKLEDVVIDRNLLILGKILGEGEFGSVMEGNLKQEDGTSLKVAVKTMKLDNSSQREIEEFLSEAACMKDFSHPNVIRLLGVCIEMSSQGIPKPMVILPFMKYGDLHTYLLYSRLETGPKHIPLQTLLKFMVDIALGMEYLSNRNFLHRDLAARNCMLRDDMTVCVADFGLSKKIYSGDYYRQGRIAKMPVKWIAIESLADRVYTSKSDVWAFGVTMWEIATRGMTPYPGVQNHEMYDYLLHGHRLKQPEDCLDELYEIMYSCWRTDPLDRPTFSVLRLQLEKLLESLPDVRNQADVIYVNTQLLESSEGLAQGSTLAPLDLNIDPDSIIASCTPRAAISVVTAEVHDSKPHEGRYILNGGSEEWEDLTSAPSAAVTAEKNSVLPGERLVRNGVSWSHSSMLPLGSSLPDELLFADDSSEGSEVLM

Kd (rat MerTK [1]): 3.6 nM
Kd (human MerTK [2]): 7.1 nM
Kd (mouse MerTK [3]): 1.5 nM
Kd (cynomolgus monkey MerTK [4]): 3.1 nM
Kd (rat MerTK [5]): 4.1 nM
Kd (human MerTK [6]): 6.7 nM
Kd (mouse MerTK [7]): 1.5 nM
Kd (cynomolgus monkey MerTK [8]): 3 nM
Kd (human MerTK [9]): 7.3 nM
B1: h10F7.v1 (antibody, V domains shown)
VH: EQQLVESGGGLVQPGGSLRLSCAVSGFSLSGYAMSWVRQAPGKGLEYIGVISSSGSSYYPSWAKGRFTISKDSSKNTVYLQMGSLRAEDMAVYFCARVQFYVGYAVYGYGIIDRLDLWGQGTLVTVSS
VL: DAVLTQSPDSLAVSLGERATINCQSSKSVYNNNWLSWYQQKPGQPPKLLIYRASTLESGVPDRFSGSGSGTDFTLTISSLQAEDVAVYFCAGGYSSSSSANAFGGGTKVEIK
notes: also called h10F7.V1 (Parent); 10F7 Humanized mAb V1

Kd (rat MerTK [1]): 3.7 nM
Kd (human MerTK [2]): 10.6 nM
Kd (mouse MerTK [3]): 1.5 nM
Kd (cynomolgus monkey MerTK [4]): 4.5 nM
Kd (rat MerTK [5]): 3.8 nM
Kd (human MerTK [6]): 11.2 nM
Kd (mouse MerTK [7]): 1.4 nM
Kd (cynomolgus monkey MerTK [8]): 4.8 nM
Kd (human MerTK [9]): 12.2 nM
B2: h9E3.FN.v1 (antibody, V domains shown)
VH: EQQLVESGGGLIQPGGSLRLSCAVSGFSLSSNAMSWVRQAPGKGLEWIGIISSSGSTYSASWAKGRFTISKDSSKNTMYLQMNSLRAEDTAVYFCARVGFFVGYGAYDYGIIHRLDLWGQGTLVTVSS
VL: DAQLTQSPSTLSASVGDRVTITCQSSKSIYNNNWLSWYQQKPGKPPKLLIYDASDLASGVPSRFSGSGSGTEFTLTISSLQPDDFATYYCAGGYSGDSDYAFGGGTKVEIK
notes: also called h9E3.FN.V1 (Parent); 9E3.FN Humanized mAb V1

Kd (rat MerTK [5]): 3 nM
Kd (human MerTK [6]): 5.8 nM
Kd (mouse MerTK [7]): 1.1 nM
Kd (cynomolgus monkey MerTK [8]): 2.5 nM
IC50 (nM), efferocytosis by human macrophages, Average (3 Donors) [10]: 1.02 nM
IC50 (nM), efferocytosis by human macrophages, Donor A [10]: 0.59 nM
IC50 (nM), efferocytosis by human macrophages, Donor C [10]: 1.5 nM
Max Inhibition (%), efferocytosis by human macrophages, Average (3 Donors) [10]: 57%
Max Inhibition (%), efferocytosis by human macrophages, Donor A [10]: 58%
Max Inhibition (%), efferocytosis by human macrophages, Donor C [10]: 55%
B3: h9E3.FN.v16 (antibody, V domains shown)
VH: B2 VH with Q2V, V24A, I48V, G49S, S73N, M78L, F94Y
VL: B2 VL with A2I
notes: Humanized, human IgG1; also called 9E3.FN Humanized polished mAb
